Target: SERCA1a, mouse (endogenous, mouse myotubes) (mouse) (UniProt Q8R429)
Assay: cell-based or functional assay

UniProt Q8R429, sequence (Q8R429 whole entry): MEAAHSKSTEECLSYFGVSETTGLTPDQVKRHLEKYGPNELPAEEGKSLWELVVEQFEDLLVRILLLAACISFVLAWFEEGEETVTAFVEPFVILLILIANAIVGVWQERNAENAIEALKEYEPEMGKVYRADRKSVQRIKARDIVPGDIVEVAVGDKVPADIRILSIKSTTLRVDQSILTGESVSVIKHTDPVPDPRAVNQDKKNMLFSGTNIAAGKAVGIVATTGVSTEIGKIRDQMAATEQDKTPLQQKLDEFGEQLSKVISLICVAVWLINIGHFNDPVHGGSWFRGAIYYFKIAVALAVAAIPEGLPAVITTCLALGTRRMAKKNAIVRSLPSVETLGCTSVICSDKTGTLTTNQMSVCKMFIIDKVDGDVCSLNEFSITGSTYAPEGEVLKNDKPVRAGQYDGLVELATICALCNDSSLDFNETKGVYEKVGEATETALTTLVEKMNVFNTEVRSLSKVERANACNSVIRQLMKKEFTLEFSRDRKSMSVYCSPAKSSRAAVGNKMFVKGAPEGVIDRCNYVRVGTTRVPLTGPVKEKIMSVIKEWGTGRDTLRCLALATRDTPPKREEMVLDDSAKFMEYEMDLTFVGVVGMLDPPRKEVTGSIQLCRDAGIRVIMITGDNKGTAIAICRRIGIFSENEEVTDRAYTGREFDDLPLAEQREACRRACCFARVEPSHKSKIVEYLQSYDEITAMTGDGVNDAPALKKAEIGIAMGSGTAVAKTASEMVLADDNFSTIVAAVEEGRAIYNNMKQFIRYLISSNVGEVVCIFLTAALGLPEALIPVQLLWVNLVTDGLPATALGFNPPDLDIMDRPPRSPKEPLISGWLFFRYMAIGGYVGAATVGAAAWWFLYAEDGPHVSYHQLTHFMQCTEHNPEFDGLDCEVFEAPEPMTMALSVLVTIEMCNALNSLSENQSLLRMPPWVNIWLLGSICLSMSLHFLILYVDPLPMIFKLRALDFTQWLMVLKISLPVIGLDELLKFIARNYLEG

| Substance | Caffeine response (normalized ratio to vector control) | KCl response (normalized ratio to vector control) | Releasable Ca^2+ level from SR (normalized ratio to vector control) |
| --- | --- | --- | --- |
| NHL-Del (TRIM32 lacking the NHL repeat) expressed in mouse myotubes (from UniProt Q13049 1-357) | 0.97 | 0.94 | 0.99 |
| wild-type TRIM32 expressed in mouse myotubes (from UniProt Q13049 1-653) | 1.22 | 1.27 | 1.48 |
